Laboratory results: publication PMC8011160, “GroEL protein of the Leptospira spp. interacts with host proteins and induces cytokines secretion on macrophages” (BMC Microbiology, 2021)

B1: truncated form of leptospiral immunoglobulin-like protein B (LigBC, amino acids 631-1156) (domain or fragment)
chain: AEIKNTSGSKGITNTLTPGSSEISAALGSIKSSKVILKVTPAQLISIAVTPINPSVAKGLIRQFKATGTYTDHSVQDVTALATWSSSNPGKAMVNNVTGSVTTVATGNTNIKATIDSISGSSVLNVTPALLTSIEITPTINSITHGLTKQFKATGIFSDKSTQNLTQLVTWISSDPSKIEIENTSGKKGIATASKLGSSNIKAVYKFIQSSPIPITVTDLKLKSITISPSSSSIAKGLTQQFKAIGTFIDGSEQEITNLVTWYSSKSDVAPINNAANAKGLATALSIGSSNISAIYNSISSNKINFNVSAATLDSIKINPVNNNIAKGLTQQYTALGVYSDSTIQDISDSVTWSSSNSDSISISNSTETKGKATALQIGNSKITATYNSISENIDITVSAATLSSISISPINTNINATVSKQFFAVGTYSDGTKADLTSSVTWSSSNKSQAKVSNASKTKGLVTGIASGNSIITATYGSVSGNTILTVNKTDTIAPTVQSVVSLSPTTIQVVYSESINNKEALDLS
notes: leptospiral immunoglobulin-like protein B (LigB), GenBank AAS69085, amino acids 631-1156, 56 kDa; half of immunoglobulin-like repeat 7 plus domains 8 to 12; source: LPS removed on Detoxi-Gel
B2: GroEL protein of Leptospira interrogans (recombinant, His-tagged) (natural protein, UniProt P61438 1-546, looked up)
chain: MAKDIEYNETARRKLLEGVNKLANAVKVTLGPKGRNVVIDKKFGAPTITKDGVTVAKEIELEDPLENMGAQMVKEVSTKTNDVAGDGTTTATILAQSIINEGLKNVTAGANPMSLKKGIDKAVTAAVESIQKRAVKIENKKDIANVASISANNDNTIGNLIADAMDKVGKDGVITVEEAKSIETTLDVVEGMQFDRGYISPYMVTDAESMVATLNDPFILIYDKKISSMKDLIHILEKVAQAGKPLVIISEEVEGEALATIVVNTLRKTISCVAVKAPGFGDRRKSMLEDIAILTGGQVISEDLGMKLENTTLQMLGRANKVTVDKENTTIIEGKGQTKEIQGRIGQIKKQIEDTTSEYDREKLQERLAKLAGGVAVIHVGAATEVEMKEKKARVEDALSATRAAVEEGIVPGGGLTLLKAQEAVGSLKLDGDEATGAKIIFRALEEPIRMITSNAGLEGSVIVEHAKAKKGNEGFNALTMVWEDMIQAGVVDPAKVVRSALQNAASIGSMILTTEVTITDKPDKDAPNPMAGMGGGGMGGMGGMM
notes: GroEL (chaperonin 60, HSP60) of L. interrogans serovar Copenhageni strain Fiocruz L1-130, GenBank AAS69936.1, 60 kDa; Cloned BamHI/HindIII into the vector pAE; as far as I recall pAE adds an N-terminal His6 tag; also called chaperonin 60; Cpn60; source: LPS removed on Detoxi-Gel

How the values were obtained:
Experiment in all cases: ELISA; host protein coated on microtiter wells; recombinant protein varied from 0 to 2 μM; absorbance with BSA subtracted; apparent Kd from the half-maximal binding concentration (GraphPad Prism 6)
Conditions in all cases: both partners purified
[1] = molecular target: T1, elastin (purified from bovine neck ligament) (bovine, UniProt P04985 27-747)
T1 construct: elastin, bovine, purified from neck ligament; an insoluble protein; Insoluble material of tissue; used coated on wells (ELISA) and as a solid in the co-sedimentation; also called insoluble elastin; source: bought: Sigma-Aldrich (purified from bovine neck ligament)
T1 sequence (looked up): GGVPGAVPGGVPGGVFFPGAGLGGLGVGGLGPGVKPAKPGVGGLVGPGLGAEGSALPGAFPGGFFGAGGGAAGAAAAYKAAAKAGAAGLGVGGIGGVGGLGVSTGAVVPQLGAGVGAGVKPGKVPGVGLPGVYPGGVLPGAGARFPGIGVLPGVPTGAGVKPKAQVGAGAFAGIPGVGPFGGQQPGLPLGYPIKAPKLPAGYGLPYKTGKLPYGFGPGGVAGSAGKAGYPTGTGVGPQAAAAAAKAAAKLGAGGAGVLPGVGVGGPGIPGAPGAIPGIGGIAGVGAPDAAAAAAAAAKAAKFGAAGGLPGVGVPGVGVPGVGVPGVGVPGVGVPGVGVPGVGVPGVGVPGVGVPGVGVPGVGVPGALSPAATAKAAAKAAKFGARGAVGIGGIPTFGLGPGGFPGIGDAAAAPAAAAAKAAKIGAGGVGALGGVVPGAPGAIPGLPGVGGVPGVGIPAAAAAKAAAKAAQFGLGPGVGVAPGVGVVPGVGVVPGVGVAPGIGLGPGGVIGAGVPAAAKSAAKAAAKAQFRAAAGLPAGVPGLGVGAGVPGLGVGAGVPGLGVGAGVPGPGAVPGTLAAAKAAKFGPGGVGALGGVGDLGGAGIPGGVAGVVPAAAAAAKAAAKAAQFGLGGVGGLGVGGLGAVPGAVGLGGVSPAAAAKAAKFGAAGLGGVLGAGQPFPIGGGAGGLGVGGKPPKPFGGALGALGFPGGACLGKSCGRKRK

[2] = molecular target: T2, fibrinogen (purified from human plasma) (human, UniProt P02671-2 20-644; P02675 31-491; P02679-2 27-437)
T2 construct: fibrinogen alpha chain, human; fibrinogen beta chain, human; fibrinogen gamma chain, human; source: bought: Sigma-Aldrich (purified from human plasma)
T2 sequence (looked up) 1: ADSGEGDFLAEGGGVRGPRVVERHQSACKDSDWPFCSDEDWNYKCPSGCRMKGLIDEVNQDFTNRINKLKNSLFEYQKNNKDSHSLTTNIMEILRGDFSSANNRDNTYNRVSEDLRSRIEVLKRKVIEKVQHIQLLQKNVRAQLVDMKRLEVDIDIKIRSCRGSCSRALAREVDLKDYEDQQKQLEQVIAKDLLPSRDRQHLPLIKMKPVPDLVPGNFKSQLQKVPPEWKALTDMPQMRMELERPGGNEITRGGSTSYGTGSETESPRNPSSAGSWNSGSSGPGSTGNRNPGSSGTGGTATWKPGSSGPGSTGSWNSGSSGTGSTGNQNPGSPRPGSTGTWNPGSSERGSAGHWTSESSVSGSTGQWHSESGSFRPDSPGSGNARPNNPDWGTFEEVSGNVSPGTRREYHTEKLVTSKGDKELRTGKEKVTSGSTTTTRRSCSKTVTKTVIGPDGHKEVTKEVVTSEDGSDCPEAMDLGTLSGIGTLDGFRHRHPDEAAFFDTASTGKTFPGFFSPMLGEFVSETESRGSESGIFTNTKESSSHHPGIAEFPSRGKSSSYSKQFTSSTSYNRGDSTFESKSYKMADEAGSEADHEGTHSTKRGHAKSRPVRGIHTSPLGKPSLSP
T2 sequence (looked up) 2: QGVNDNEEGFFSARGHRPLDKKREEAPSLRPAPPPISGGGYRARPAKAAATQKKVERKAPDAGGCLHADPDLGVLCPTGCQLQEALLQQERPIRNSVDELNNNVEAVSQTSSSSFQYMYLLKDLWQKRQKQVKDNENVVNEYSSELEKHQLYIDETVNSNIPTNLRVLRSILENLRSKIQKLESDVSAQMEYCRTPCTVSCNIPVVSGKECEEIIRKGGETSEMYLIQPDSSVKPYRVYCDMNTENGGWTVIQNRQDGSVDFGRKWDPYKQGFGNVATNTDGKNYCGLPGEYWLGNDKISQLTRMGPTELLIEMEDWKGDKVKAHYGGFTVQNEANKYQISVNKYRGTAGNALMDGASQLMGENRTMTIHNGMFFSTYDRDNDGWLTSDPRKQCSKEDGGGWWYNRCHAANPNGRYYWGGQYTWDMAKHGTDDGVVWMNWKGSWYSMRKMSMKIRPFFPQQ
T2 sequence (looked up) 3: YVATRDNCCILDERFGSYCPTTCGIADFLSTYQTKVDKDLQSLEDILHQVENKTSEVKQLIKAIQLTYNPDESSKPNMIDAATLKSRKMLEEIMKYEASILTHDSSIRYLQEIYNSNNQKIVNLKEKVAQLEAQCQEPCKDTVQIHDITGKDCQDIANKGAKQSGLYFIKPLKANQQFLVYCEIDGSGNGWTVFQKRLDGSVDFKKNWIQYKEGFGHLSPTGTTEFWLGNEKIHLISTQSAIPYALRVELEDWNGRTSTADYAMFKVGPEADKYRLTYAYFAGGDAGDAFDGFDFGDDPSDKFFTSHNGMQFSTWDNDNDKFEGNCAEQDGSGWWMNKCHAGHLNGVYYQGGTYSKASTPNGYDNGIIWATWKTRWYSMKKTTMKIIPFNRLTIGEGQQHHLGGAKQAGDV

[3] = molecular target: T3, collagen Type IV (purified from basement membrane of Engelbreth-Holm-Swarm mouse sarcoma) (mouse, UniProt P02463 173-1669; P08122 184-1707)
T3 construct: collagen type IV alpha 1 chain, mouse; collagen type IV alpha 2 chain, mouse; also called collagen IV; source: bought: Sigma-Aldrich (purified from basement membrane of Engelbreth-Holm-Swarm mouse sarcoma)

[4] = molecular target: T4, laminin (purified from basement membrane of Engelbreth-Holm-Swarm mouse sarcoma) (mouse, UniProt P19137 25-3083; P02469 22-1786; P02468 34-1607)
T4 construct: source: bought: Sigma-Aldrich (purified from basement membrane of Engelbreth-Holm-Swarm mouse sarcoma)

[5] = molecular target: T5, collagen Type I (purified from rat tail) (rat, UniProt P02454 152-1207; P02466 86-1125)
T5 construct: collagen type I alpha 1 chain, rat; collagen type I alpha 2 chain, rat; also called collagen I; source: bought: Sigma-Aldrich (purified from rat tail)
T5 sequence (P02454 152-1207, chain 1 of 2): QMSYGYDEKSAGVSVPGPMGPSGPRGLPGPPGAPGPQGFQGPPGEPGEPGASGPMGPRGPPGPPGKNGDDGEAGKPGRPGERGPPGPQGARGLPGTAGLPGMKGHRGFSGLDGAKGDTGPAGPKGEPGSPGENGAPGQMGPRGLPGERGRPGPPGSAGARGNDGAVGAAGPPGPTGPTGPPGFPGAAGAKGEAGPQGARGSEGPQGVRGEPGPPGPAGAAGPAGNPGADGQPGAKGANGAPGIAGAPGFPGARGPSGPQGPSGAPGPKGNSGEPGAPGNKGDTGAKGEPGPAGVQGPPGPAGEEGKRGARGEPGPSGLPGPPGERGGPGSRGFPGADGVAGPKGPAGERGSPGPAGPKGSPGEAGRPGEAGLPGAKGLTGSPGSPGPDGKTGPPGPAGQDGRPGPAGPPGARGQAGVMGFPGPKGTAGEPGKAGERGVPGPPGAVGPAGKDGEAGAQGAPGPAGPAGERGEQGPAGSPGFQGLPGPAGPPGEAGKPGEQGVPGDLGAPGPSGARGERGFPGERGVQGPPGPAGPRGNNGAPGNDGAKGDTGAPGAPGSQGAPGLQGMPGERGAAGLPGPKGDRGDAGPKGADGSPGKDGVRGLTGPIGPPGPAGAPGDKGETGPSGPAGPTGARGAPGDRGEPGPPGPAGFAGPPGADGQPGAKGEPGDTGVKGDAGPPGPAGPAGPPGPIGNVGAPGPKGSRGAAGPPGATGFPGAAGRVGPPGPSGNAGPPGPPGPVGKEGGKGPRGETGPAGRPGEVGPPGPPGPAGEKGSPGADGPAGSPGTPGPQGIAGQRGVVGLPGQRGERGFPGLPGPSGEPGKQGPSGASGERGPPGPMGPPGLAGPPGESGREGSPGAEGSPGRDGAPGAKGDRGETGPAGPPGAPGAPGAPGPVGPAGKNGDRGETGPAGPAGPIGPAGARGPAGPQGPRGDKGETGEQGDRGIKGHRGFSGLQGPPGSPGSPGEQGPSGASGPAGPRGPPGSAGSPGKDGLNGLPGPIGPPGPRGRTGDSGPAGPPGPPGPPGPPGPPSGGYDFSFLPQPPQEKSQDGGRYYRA
T5 sequence (P02466 86-1125, chain 2 of 2): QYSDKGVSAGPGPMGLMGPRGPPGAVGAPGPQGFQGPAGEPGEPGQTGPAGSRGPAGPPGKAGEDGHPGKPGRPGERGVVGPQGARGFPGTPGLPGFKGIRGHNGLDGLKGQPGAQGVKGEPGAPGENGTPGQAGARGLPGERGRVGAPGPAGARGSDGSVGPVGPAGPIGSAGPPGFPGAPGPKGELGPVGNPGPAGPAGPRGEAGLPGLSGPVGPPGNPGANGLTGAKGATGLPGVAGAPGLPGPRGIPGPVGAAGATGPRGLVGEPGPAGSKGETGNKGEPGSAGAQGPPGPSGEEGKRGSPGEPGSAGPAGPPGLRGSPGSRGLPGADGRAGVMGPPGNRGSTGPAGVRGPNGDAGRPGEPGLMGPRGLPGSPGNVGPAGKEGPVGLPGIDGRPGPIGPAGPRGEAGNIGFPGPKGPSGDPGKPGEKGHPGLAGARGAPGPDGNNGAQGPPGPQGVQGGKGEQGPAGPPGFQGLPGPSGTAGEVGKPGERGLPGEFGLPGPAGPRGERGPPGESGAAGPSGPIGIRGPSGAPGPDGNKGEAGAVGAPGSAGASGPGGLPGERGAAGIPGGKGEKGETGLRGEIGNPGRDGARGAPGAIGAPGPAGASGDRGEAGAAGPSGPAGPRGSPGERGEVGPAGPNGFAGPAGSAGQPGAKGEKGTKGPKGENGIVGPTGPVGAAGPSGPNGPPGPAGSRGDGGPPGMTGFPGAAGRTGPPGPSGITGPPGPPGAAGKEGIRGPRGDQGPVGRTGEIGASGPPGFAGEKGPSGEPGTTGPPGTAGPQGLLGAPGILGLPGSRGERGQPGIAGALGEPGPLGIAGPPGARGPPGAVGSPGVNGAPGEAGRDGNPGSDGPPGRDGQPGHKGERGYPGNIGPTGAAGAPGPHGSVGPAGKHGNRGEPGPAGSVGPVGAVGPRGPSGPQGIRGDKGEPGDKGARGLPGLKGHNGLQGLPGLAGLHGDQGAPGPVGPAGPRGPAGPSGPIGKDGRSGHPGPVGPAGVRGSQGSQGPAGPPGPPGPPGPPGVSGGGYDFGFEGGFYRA

T3 sequence (P02463 173-1669, chain 1 of 2): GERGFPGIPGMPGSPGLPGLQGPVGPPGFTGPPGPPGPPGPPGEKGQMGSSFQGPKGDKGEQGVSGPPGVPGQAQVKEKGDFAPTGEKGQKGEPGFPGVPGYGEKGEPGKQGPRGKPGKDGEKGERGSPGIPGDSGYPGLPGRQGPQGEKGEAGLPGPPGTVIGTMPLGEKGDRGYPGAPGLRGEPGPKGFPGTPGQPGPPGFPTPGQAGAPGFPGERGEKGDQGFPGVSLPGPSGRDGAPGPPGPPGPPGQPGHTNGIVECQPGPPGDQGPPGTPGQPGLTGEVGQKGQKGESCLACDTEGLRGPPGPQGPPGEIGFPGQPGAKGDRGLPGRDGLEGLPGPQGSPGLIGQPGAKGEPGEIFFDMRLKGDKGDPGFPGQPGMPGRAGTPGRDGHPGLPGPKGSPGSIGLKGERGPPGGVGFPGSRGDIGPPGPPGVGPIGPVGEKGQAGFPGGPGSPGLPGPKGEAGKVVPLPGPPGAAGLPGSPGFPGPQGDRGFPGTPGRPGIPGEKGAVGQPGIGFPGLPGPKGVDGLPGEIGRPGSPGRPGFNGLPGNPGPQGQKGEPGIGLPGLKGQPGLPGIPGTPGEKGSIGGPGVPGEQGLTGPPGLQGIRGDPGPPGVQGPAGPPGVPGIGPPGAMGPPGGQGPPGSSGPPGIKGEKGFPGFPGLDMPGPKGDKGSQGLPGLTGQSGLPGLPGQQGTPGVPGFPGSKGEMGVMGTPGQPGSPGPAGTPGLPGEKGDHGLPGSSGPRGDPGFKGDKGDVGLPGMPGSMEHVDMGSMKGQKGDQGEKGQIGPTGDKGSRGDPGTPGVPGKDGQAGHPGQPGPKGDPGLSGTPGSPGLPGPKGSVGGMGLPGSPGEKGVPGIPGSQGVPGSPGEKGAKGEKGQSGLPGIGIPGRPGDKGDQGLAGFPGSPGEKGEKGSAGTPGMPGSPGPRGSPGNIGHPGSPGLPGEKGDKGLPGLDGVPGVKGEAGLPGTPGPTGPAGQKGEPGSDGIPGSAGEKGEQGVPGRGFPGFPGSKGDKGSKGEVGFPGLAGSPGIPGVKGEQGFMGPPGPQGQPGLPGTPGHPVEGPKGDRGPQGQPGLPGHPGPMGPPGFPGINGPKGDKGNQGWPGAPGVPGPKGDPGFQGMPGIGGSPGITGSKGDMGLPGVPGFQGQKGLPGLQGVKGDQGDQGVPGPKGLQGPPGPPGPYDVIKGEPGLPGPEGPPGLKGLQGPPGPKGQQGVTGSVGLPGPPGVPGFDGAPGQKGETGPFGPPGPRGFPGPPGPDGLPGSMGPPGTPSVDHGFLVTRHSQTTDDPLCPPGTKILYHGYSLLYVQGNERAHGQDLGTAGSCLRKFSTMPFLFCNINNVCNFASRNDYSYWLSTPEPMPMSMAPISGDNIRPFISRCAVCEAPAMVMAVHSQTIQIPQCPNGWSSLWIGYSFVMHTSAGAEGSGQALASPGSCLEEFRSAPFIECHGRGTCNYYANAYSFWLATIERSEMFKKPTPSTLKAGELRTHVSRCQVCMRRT
T3 sequence (P08122 184-1707, chain 2 of 2): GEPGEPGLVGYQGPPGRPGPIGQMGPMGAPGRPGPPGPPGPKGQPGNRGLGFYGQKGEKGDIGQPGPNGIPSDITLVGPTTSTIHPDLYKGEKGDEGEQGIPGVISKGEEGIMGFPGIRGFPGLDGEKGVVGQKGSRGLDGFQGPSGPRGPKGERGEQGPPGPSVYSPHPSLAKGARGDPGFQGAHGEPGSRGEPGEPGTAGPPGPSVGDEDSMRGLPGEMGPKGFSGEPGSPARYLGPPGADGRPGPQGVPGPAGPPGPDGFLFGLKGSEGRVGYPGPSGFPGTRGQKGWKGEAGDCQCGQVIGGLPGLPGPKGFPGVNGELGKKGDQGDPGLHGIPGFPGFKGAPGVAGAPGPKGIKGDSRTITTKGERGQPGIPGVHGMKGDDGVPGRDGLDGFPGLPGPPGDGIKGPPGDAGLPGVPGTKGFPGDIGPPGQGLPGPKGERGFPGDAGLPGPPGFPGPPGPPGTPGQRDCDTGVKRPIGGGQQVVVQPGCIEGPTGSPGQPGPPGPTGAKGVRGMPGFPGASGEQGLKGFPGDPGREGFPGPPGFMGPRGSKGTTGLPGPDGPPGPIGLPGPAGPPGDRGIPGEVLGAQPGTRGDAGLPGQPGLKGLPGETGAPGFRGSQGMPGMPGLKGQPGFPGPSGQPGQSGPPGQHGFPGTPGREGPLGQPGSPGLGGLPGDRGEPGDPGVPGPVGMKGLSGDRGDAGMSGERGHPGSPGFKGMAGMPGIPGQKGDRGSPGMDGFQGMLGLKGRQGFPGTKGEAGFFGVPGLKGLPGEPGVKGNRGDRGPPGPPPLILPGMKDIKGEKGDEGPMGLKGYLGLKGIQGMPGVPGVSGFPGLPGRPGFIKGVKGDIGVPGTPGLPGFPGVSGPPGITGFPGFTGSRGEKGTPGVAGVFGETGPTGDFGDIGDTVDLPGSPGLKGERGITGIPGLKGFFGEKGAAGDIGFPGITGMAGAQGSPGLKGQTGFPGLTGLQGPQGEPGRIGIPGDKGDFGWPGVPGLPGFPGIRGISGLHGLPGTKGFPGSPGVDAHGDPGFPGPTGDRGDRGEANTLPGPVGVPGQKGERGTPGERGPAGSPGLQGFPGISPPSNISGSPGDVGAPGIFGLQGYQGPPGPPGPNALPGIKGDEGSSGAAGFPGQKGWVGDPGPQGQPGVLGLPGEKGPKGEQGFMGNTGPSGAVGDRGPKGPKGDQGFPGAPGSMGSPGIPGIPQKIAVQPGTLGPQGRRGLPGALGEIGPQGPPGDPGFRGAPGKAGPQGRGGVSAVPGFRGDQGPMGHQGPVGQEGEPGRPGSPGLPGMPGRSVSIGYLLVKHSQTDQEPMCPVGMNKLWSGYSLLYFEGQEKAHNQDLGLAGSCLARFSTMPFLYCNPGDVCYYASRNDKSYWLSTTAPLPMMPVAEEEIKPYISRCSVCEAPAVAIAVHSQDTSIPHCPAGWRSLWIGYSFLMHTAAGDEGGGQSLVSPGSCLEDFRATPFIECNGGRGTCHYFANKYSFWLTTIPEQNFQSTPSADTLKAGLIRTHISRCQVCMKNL

| Binder | Kd [1] [nM] | Kd [2] [nM] | Kd [3] [nM] | Kd [4] [nM] | Kd [5] [nM] |
| --- | --- | --- | --- | --- | --- |
| B1 | 4 ± 1 | 4 ± 1 | 7 ± 1 | 41 ± 3 | 8 ± 2 |
| B2 | 23 ± 3 |  | 6 ± 1 | 115 ± 12 |  |
